Experimental data taken from article PMC12355757, “TRIM6 ablation reverses ICB resistance in MSS gastric cancer by unleashing cGAS-STING-dependent antitumor immunity” (Journal of Experimental & Clinical Cancer Research : CR, 2025).

Biological target: T1, Recombinant His-cGAS (human, UniProt Q8N884 1-522)
T1 construct: cGAS cloned into the pET28a plasmid for the GST pull-down; also called purified His-cGAS
Test: pull-down; purified His-cGAS incubated with GST, GST-TRIM6 or its truncated mutants on GST-tag resin overnight at 4 °C; 50 mM Tris pH 8.0, 200 mM NaCl, 1 mM EDTA, 1% NP-40, 1 mM DTT, 1 mM MgCl2; immunoblot with anti-His or anti-cGAS
Settings: both partners purified

T1 sequence (Q8N884 whole entry): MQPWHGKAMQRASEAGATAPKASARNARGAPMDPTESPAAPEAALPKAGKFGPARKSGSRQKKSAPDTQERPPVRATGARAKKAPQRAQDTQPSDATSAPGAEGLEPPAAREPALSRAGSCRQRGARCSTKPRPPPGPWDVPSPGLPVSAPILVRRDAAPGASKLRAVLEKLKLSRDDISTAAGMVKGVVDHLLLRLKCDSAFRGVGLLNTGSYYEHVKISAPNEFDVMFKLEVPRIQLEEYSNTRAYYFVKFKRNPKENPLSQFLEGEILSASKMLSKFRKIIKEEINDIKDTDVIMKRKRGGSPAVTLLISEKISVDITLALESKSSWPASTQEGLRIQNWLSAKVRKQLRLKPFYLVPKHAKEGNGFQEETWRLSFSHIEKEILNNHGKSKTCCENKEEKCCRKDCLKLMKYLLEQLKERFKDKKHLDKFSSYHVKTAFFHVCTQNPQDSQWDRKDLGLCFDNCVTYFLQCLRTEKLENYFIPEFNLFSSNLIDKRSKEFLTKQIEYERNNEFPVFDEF

- binding result: binds
B1: GST-TRIM6 (full length) (enzyme, human, UniProt Q9C030-2 1-516, looked up)
chain: MCGSERILQAGNILEIRVGQAGARRVATMTSPVLVDIREEVTCPICLELLTEPLSIDCGHSFCQACITPNGRESVIGQEGERSCPVCQTSYQPGNLRPNRHLANIVRRLREVVLGPGKQLKAVLCADHGEKLQLFCQEDGKVICWLCERSQEHRGHHTFLVEEVAQEYQEKFQESLKKLKNEEQEAEKLTAFIREKKTSWKNQMEPERCRIQTEFNQLRNILDRVEQRELKKLEQEEKKGLRIIEEAENDLVHQTQSLRELISDLERRCQGSTMELLQDVSDVTERSEFWTLRKPEALPTKLRSMFRAPDLKRMLRVCRELTDVQSYWVDVTLNPHTANLNLVLAKNRRQVRFVGAKVSGPSCLEKHYDCSVLGSQHFSSGKHYWEVDVAKKTAWILGVCSNSLGPTFSFNHFAQNHSAYSRYQPQSGYWVIGLQHNHEYRAYEDSSPSLLLSMTVPPRRVGVFLDYEAGTVSFYNVTNHGFPIYTFSKYYFPTTLCPYFNPCNCVIPMTLRRPSS
notes: TRIM6, human, full-length, cloned into the pGEX-6T-1 vector; also called full-length TRIM6
